Data from patent US20140186359A1 (TORAY INDUSTRIES, published 2014).

T1: human CAPRIN-1 expressed on the surface of human cancer cells (human, UniProt Q14444 2-709)
T1 construct: Endogenous CAPRIN-1 of human cancer cell lines or tissues; also called CAPRIN-1 proteins on the cell membrane surface
T1 sequence: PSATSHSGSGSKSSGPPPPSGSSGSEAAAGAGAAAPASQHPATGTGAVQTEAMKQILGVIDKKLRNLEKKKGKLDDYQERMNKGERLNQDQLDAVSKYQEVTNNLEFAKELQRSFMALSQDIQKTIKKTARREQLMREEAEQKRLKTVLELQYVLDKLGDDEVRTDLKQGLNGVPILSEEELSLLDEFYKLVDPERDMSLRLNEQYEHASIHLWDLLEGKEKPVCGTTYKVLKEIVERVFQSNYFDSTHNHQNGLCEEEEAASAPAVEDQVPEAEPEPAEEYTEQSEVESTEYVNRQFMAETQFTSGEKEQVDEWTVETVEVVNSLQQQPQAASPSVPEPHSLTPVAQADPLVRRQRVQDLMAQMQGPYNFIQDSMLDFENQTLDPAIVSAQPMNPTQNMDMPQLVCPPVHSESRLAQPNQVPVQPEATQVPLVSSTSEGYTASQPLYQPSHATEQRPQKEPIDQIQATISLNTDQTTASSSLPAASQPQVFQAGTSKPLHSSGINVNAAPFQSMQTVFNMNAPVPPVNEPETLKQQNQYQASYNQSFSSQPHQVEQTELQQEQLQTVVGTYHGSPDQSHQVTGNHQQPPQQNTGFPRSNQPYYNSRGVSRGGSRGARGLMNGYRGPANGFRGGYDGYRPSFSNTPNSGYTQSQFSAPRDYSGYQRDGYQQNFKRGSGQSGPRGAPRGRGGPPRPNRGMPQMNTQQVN

T2: partial CAPRIN-1 polypeptide consisting of the amino acid sequence of SEQ ID NO: 5 (human)
T2 construct: Peptide coupled to Immobilizer Amino ELISA plate
T2 peptide: VFNMNAPVPPVNEPETLK


Legend:
[1] = target: T1, human CAPRIN-1 expressed on the surface …; experiment: flow cytometry on the listed human cancer cell lines, culture supernatant, against secondary antibody only
Procedure: 10⁶ cells of each cell line were centrifuged in each 1.5-ml microcentrifuge tube. Each culture supernatant (100 μl) containing any of the antibodies #1, #2, and #3 and the chicken monoclonal antibodies #1, #2, #3, and #4 was added to the tube and left to stand for 1 hour on ice. After washing with PBS, FITC-labeled goat anti-mouse IgG (H+L) antibodies (manufactured by Jackson ImmunoResearch Laboratories, Inc.) diluted with PBS containing 0.1% FBS for the mouse-derived antibodies or FITC-labeled goat anti-chicken IgG (H+L) antibodies (manufactured by SouthernBiotech) diluted 100-fold with PBS containing 0.1% FBS for the chicken-derived antibodies were added thereto and left to stand at 4° C. for 30 minutes. After washing with PBS, the fluorescence intensity was measured using FACSCalibur (Becton, Dickinson and Company). The negative control used was cells reacted only with secondary antibodies. As a result, all the cells each treated with any of the antibodies #1, #2, and #3 and the chicken monoclonal antibodies #1 to #4 had fluorescence intensity at least 35% stronger than that of the negative control. […] The rates of enhancement in the fluorescence intensity was expressed as the rates of increase in mean fluorescence intensity (MFI) in respective cell lines, which are calculated according to the following formula.

[2] = target: T1, human CAPRIN-1 expressed on the surface …; experiment: cell-based or functional assay
[3] = target: T2, partial CAPRIN-1 polypeptide consisting …; experiment: peptide ELISA, culture supernatant
Procedure: The obtained mouse monoclonal antibodies #2 and #3 were examined for their specific reaction with the amino acid sequence of SEQ ID NO: 5 as a partial CAPRIN-1 sequence used as an immunogen. A 30 μg/ml solution of the amino acid sequence of SEQ ID NO: 5 prepared with a 0.1 M aqueous sodium carbonate solution and a partial CAPRIN-1 sequence free from the amino acid sequence of SEQ ID NO: 5 were each added to a 96-well plate Immobilizer Amino for ELISA (Nunc) at […] and reacted for one whole day and night at 4° C. to bind the peptides to the wells. A 0.1 M aqueous sodium carbonate solution containing 10 mM ethanolamine was added to the peptide-bound wells and left to stand at room temperature for 1 hour. The solution in each well was removed, and each well was then washed with PBS-T. Then, a Blockace solution was added thereto at 400 μl/well and left to stand at room temperature for 3 hours. The solution in each well was removed, and each well was washed with PBS-T. Then, the culture supernatant containing the mouse monoclonal antibody #2 was added thereto at […] and reacted at room temperature for 1 hour. […] The absorbance was measured at 450 nm and 595 nm using an absorption spectrometer.

rate of increase in mean fluorescence intensity [1] [%] | binding result [3] | Binder | ADCC cytotoxic activity (51Cr release) against Caki-2 [2] [%] | ADCC cytotoxic activity (51Cr release) against HCT-116 [2] [%] | ADCC cytotoxic activity (51Cr release) against MCF7 [2] [%] | ADCC cytotoxic activity (51Cr release) against MIAPaCa-2 [2] [%] | ADCC cytotoxic activity (51Cr release) against QG56 [2] [%] | ADCC cytotoxic activity (51Cr release) against all other cancer cell lines listed [2] [%]
≥ 35 | – | chicken monoclonal antibody #4 (antibody, V domains shown, Chicken hybridoma antibody; also called anti-CAPRIN-1 chicken monoclonal antibody #4) VH: AVTLDESGGGLQTPGGAVSLVCKGSGFTFSSYGMGWVRQAPGKGLEYVAAIRKDGSTNYGPAVKGRATISRDNGQSTVRLQLSNLRAEDTATYYCAKRSHTGVNAAKIDAWGRGTEVIVS VL: ALTQPASVSANPGETVKITCSGASHNYGWFQQKSPGSAPVTVIYSNDKRPSDIPSRFSGSKSGSTATLTITGVQADDEAVYFCGGYNIYGPTFGAGTTLTV | – | – | – | – | – | –
≥ 35 | – | chicken monoclonal antibody #1 (antibody, V domains shown, Chicken hybridoma antibody; also called anti-CAPRIN-1 chicken monoclonal antibody #1) VH: AVTLDESGGGLQTPGGALSLVCKASGFTFRSHSMFWVRQAPGKGLEYVAGIYGVGRSIRYGSAVKGRATMSRDNGQSTVRLQLNNLRAEDTATYYCAKSGYFSNSRYWDSGAYFIDAWGHGTEVIVS VL: ALTQPASVSANPGETVEITCSGGYSNYGWYQQKSPGSAPVTVIYYNDKRPSDIPSRFSGSKSGSTATLTITGVQAEDEAVYFCGGYDSSTDAGIFGAGTTLTV | – | – | – | – | – | –
≥ 35 | – | chicken monoclonal antibody #3 (antibody, V domains shown, Chicken hybridoma antibody; also called anti-CAPRIN-1 chicken monoclonal antibody #3) VH: AVTLDESGGGLQTPGGGLSLVCKGSGFTFSSFGMFWVRQAPGKGLEFVASISDNGRSTYYGSAVKGRATISRDDGQSTVRLQLNNLRAEDTGTYYCAKNAYVGRGCCFSYSIDAWGHGTEVIVS VL: ALTQPASVSVNPGETVKITCSGGGSSSDAYGWYQQKSPGSAPVTLIYNGSNRPSHIPSRFSGSTSGSTNTLTITGVQVEDEAIYFCGSTDTSTSVGIFGAGTTLTV | – | – | – | – | – | –
– | – | human-mouse chimeric comparative monoclonal antibody 6 (antibody, human IgG1, kappa) heavy: not shown light: DRVSITCKASQNVRTAVAWYQQKPRQSPKALIYLASNRDTGLPDRFPGRGSGTDFTLNITNVQSEDLEDYFCLQHCNYPNEFRGCTKVPITVAAPSVFIFPPSDEQLKSGTASVVCLLNNFYPREAKVQWKVDNALQSGNSQESVTEQDSKDSTYSLSSTLTLSKADYEKHKVYACEVTHQGLSSPVTKSFNRGEC | < 8 | < 3 | < 5 | 7 | < 5 | < 4
– | – | human-mouse chimeric comparative monoclonal antibody 10 (antibody, human IgG1, kappa) heavy: not shown light: RLPFYSLEQRATISYRASKNVSTSGYSYMHWNQQKPGQPPKLLIYLVSNLESGVPARFSGSGSGTDFTLNIHPVEEEDAATYYCQHIRELTRSELVPSWKSNTVAAPSVFIFPPSDEQLKSGTASVVCLLNNFYPREAKVQWKVDNALQSGNSQESVTEQDSKDSTYSLSSTLTLSKADYEKHKVYACEVTHQGLSSPVTKSFNRGEC | < 8 | < 3 | < 5 | 7 | < 5 | < 4
– | – | human-mouse chimeric comparative monoclonal antibody 7 (antibody, human IgG1, kappa, V domains shown) VH: LQESGAELARPGASVKLSCKASGYTFTSYWMQWVKQRPGQGLEWIGAIYPGDGDTRYTQKFKGKATLTADKSSSTAYMQLSSLASEDSAVYYCARGEYGNYFAYWGQGTTVTVSS VL: TSDASLGERVTITCKASQDINSYLSWFQQKPGKSPKTLIYRANRLVDGVPSRFSGSGSGQDYSLTISSLEYEDMGIYYCLQYDEFPLTFGGGTKLEIKQ | < 8 | < 3 | < 5 | 7 | < 5 | < 4
≥ 35 | – | mouse monoclonal antibody #2 (antibody, V domains shown, Mouse hybridoma antibody; detected with anti-mouse IgG; also called anti-CAPRIN-1 monoclonal antibody #2) VH: GGGLVKPGGSLKLSCAASGFTFSSYGMSWVRQTPEKRLEWVATISSGGSYTYYPDSVKGRFTISRDNAKNTLYLQMSSLRSEDTAMYYCASLASYYFDYWGQGTTLTVSS VL: DVQMIQSPSSLSASLGDIVTMTCQASQGTSINLNWFQQKPGKAPKLLIYGASSLEDGVPSRFSGSCFGTDFTLTISSLEDEDMATYFCLQHSYLPPLTFGAGTKLELKR | – | – | – | – | – | –
≥ 35 | binds | mouse monoclonal antibody #3 (antibody, V domains shown, Mouse hybridoma antibody; detected with anti-mouse IgG; also called anti-CAPRIN-1 monoclonal antibody #3) VH: GGGLVKPGGSLKLSCAASGFTFSSYGMSWVRQTPEKRLEWVATISSGGSYTYYPDSVKGRFTISRDNAKNTLYLQMSSLRSEDTAMYYCASLASYYFDYWGQGTTLTVSS VL: not shown | – | – | – | – | – | –
– | – | human-mouse chimeric comparative monoclonal antibody 8 (antibody, human IgG1, kappa) heavy: not shown light: EFHAVSLGQRATISCRASESVDSYGNSFMHWYQQKPGQPPKLLIYRASNLESGIPARFSGSGSRTDFTLTINPVEADDVATYYCQQSNEDPGRSEVVPSWRSNKTVAAPSVFIFPPSDEQLKSGTASVVCLLNNFYPREAKVQWKVDNALQSGNSQESVTEQDSKDSTYSLSSTLTLSKADYEKHKVYACEVTHQGLSSPVTKSFNRGEC | < 8 | < 3 | < 5 | 7 | < 5 | < 4
≥ 35 | – | mouse monoclonal antibody #1 (antibody, V domains shown, Mouse hybridoma antibody; detected with anti-mouse IgG; also called anti-CAPRIN-1 monoclonal antibody #1) VH: GPGLVQPSQSLSITCTVSGFSLTTYDLHWVRQSPGKGLEWLGVIWSGGSTDYNAAFISRLSISKDNSKSQVFFKMNSLQANDTAIYYCARNYGYSAWFAYWGQGTLVTVSA VL: DVLMTQTPLSLPVSLGDQASISCRSSQSIVHSNGNTYLEWYLQKPGQSPKLLIYKVSNRFSGVPDRFSGSGSGTDFTLKISRVEAEDLGVYYCFQGSHVPLTFGAGTKLELKR | – | – | – | – | – | –
